For one protein, Km results are on record in patent US7217548B2, “N-acetylglucosaminlytransferase and polynucleotide encoding the same” (National Institute of Advanced Industrial Science and …, priority 2000, dated 2007).

Substrate in the data set: CC(=O)N[C@@H](C)C(=O)N[C@@H](C)C(=O)N1CCC[C@H]1C(=O)N[C@H](C(=O)N1CCC[C@H]1C(=O)N[C@H](C(=O)N[C@@H](C)C(=O)N[C@@H](C)C(=O)N1CCC[C@H]1C(N)=O)C(C)C)[C@@H](C)O[C@H]1O[C@H](CO)[C@@H](O)[C@H](O)[C@@H]1O
Briefly: Substrate specificity and kinetic parameters of solubilized human OMGnT enzyme (S). The format is biochemical. Particulars: other: 125 mM MOPS pH7.3, 0.2 mM UDP-GlcNAc, 7.5 mM MnCl2, 37° C., 2 hours, pH 7.3. Here is the method: […] […] The reaction mixture was then filtered with a filter Ultrafree-MC (Millipore) having a pore size of 0.22 μm to remove solids, and analyzed by Wakopak 5C18-200 column (4.6×250 mm, Wako Pure Chemical Industries, Ltd.). The separation was carried out using concentration gradient with Solution A and Solution B at a flow rate of 1.0 ml/min. […] Peptide detection was carried out at 214 nm, and the radioactivity of each fraction was assayed using a liquid scintillation counter.
The activity of GnT-1 was assayed with a method by Yoshida et al. [Yoshida, S., Suzuki, M., Yamano, S., Takeuchi, M., Ikenaga, H., Kioka, N., Sakai, H., and Komano, T., Glycobiology, (1999), 9, 53–58] as described below. A 20 μl reaction solution was prepared by adding an enzyme source thereto so as to have a final concentration of 100 mM MES (pH 6.0), 20 mM MnCl2, 5 μM Manα1–6(Manα1–3)Manα1–6(Manα1–3)Manβ1–4GlcNAcβ1–4GlcNAc-PA(M5GN2-PA; Takara Shuzo, PA-Sugar Chain 017), 1 mM UDP-GlcNAc, 100 mM GlcNAc, 5 mM AMP, 1% Triton X-100, and 0.2% BSA. The reaction solution was incubated at 37° C. for 1 hour, and the reaction was terminated in boiling water. Thereafter, the reaction solution was analyzed by a reverse phase HPLC (Cosmosil 5C18-AR column) available from Nacalai Tesque. […]

B1: His-Xpress-sOMGnT(S) (Homo sapiens; M623V) (protein)
chain: SSAEEAECHWADTELNRRRRRFCSKVEGYGSVCSCKDPTPIEFSPDPLPDNKVLNVPVAVIAGNRPNYLYRMLRSLLSAQGVSPQMITVFIDGYYEEPMDVVALFGLRGIQHTPISIKNARVSQHYKASLTATFNLFPEAKFAVVLEEDLDIAVDFFSFLSQSIHLLEEDDSLYCISAWNDQGYEHTAEDPALLYRVETMPGLGWVLRRSLYKEELEPKWPTPEKLWDWDMWMRMPEQRRGRECIIPDVSRSYHFGIVGLNMNGYFHEAYFKKHKFNTVPGVQLRNVDSLKKEAYEVEVHRLLSEAEVLDHSKNPCEDSFLPDTEGHTYVAFIRMEKDDDFTTWTQLAKCLHIWDLDVRGNHRGLWRLFRKKNHFLVVGVPASPYSVKKPPSVTPIFLEPPPKEEGAPGAPEQT
notes: Ig kappa chain secretory signal (N); made in house; host or cells: HEK293T (transient, secreted into serum-free medium)
One may read the Km as the substrate concentration at which the rate is half of its maximum. Regarding B1, the Km came to 1.36 mM.
